Assay results as given in the supplement of paper PMC10567573.

B1: CSTF3 (parent)
chain: YVPEKVKKAEKKLEENPYDLDAWS

Variants of: B1
Test: protein stability index of a GFP-peptide fusion (GPS, HEK-293T) (PSI 1-6); higher = more stable
Conditions: c terminus: a fixed tail appended
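Also: lentivirally expressed fusions sorted by FACS into six bins by GFP to DsRed ratio, PSI derived from sequencing read proportions per bin multiplied by bin number.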

Question: For YVPEKPKKAEKKLEENPYDLDAWS [V6P], which protein stability index is on record?
Answer: 1.26

Question: For YVPEKNKKAEKKLEENPYDLDAWS [V6N], which protein stability index is on record?
Answer: 2.72

Question: With YVPEKMKKAEKKLEENPYDLDAWS [V6M] as the variant, how does the protein stability index read?
Answer: 2.66

Question: For YVPEKQKKAEKKLEENPYDLDAWS [V6Q], which protein stability index is on record?
Answer: 2.35

Question: For YVPIKVKKAEKKLEENPYDLDAWS [E4I], which protein stability index is on record?
Answer: 2.8

Question: Which protein stability index does the source give for YVPRKVKKAEKKLEENPYDLDAWS [E4R] here?
Answer: 2.8

Question: For YVPNKVKKAEKKLEENPYDLDAWS [E4N], which protein stability index is on record?
Answer: 2.19

Question: With YVPVKVKKAEKKLEENPYDLDAWS [E4V] as the variant, how does the protein stability index read?
Answer: 2.69

Question: With YVPPKVKKAEKKLEENPYDLDAWS [E4P] as the variant, how does the protein stability index read?
Answer: 2.3

Question: With YVPCKVKKAEKKLEENPYDLDAWS [E4C] as the variant, how does the protein stability index read?
Answer: 2.43

Question: For YVPHKVKKAEKKLEENPYDLDAWS [E4H], which protein stability index is on record?
Answer: 2.44

Question: With YVPWKVKKAEKKLEENPYDLDAWS [E4W] as the variant, how does the protein stability index read?
Answer: 2.28

Question: With YVPTKVKKAEKKLEENPYDLDAWS [E4T] as the variant, how does the protein stability index read?
Answer: 2.56

Question: For YVPFKVKKAEKKLEENPYDLDAWS [E4F], which protein stability index is on record?
Answer: 2.49

Question: With YVPKKVKKAEKKLEENPYDLDAWS [E4K] as the variant, how does the protein stability index read?
Answer: 3.35

Question: For YVPGKVKKAEKKLEENPYDLDAWS [E4G], which protein stability index is on record?
Answer: 2.58

Question: Which protein stability index does the source give for YVPSKVKKAEKKLEENPYDLDAWS [E4S] here?
Answer: 1.62

Question: With YVPQKVKKAEKKLEENPYDLDAWS [E4Q] as the variant, how does the protein stability index read?
Answer: 3.41

Question: With YVPMKVKKAEKKLEENPYDLDAWS [E4M] as the variant, how does the protein stability index read?
Answer: 1.9

Question: With YVPYKVKKAEKKLEENPYDLDAWS [E4Y] as the variant, how does the protein stability index read?
Answer: 3.67

Question: For YVPAKVKKAEKKLEENPYDLDAWS [E4A], which protein stability index is on record?
Answer: 3.03

Question: With YPPEKVKKAEKKLEENPYDLDAWS [V2P] as the variant, how does the protein stability index read?
Answer: 3.87

Question: For YKPEKVKKAEKKLEENPYDLDAWS [V2K], which protein stability index is on record?
Answer: 4.25

Question: With YQPEKVKKAEKKLEENPYDLDAWS [V2Q] as the variant, how does the protein stability index read?
Answer: 4.07

Question: With YDPEKVKKAEKKLEENPYDLDAWS [V2D] as the variant, how does the protein stability index read?
Answer: 4.2

Question: For YSPEKVKKAEKKLEENPYDLDAWS [V2S], which protein stability index is on record?
Answer: 4.67

Question: Which protein stability index does the source give for YHPEKVKKAEKKLEENPYDLDAWS [V2H] here?
Answer: 2.25

Question: Which protein stability index does the source give for YEPEKVKKAEKKLEENPYDLDAWS [V2E] here?
Answer: 4.84

Question: Which protein stability index does the source give for YCPEKVKKAEKKLEENPYDLDAWS [V2C] here?
Answer: 2.32

Question: For YIPEKVKKAEKKLEENPYDLDAWS [V2I], which protein stability index is on record?
Answer: 2.33

Question: With YAPEKVKKAEKKLEENPYDLDAWS [V2A] as the variant, how does the protein stability index read?
Answer: 1.92

Question: With YLPEKVKKAEKKLEENPYDLDAWS [V2L] as the variant, how does the protein stability index read?
Answer: 4.51

Question: For YRPEKVKKAEKKLEENPYDLDAWS [V2R], which protein stability index is on record?
Answer: 4.48

Question: With YNPEKVKKAEKKLEENPYDLDAWS [V2N] as the variant, how does the protein stability index read?
Answer: 4.47

Question: Which protein stability index does the source give for YFPEKVKKAEKKLEENPYDLDAWS [V2F] here?
Answer: 4.31

Question: For YWPEKVKKAEKKLEENPYDLDAWS [V2W], which protein stability index is on record?
Answer: 3.94

Question: With YMPEKVKKAEKKLEENPYDLDAWS [V2M] as the variant, how does the protein stability index read?
Answer: 3.92

Question: For YGPEKVKKAEKKLEENPYDLDAWS [V2G], which protein stability index is on record?
Answer: 4.5

Question: Which protein stability index does the source give for YTPEKVKKAEKKLEENPYDLDAWS [V2T] here?
Answer: 3.18

Question: For YYPEKVKKAEKKLEENPYDLDAWS [V2Y], which protein stability index is on record?
Answer: 4.37

Question: With YVPEKVKNAEKKLEENPYDLDAWS [K8N] as the variant, how does the protein stability index read?
Answer: 2.92

Question: With YVPEKVKWAEKKLEENPYDLDAWS [K8W] as the variant, how does the protein stability index read?
Answer: 3.37

Question: Which protein stability index does the source give for YVPEKVKEAEKKLEENPYDLDAWS [K8E] here?
Answer: 2.9

Question: With YVPEKVKYAEKKLEENPYDLDAWS [K8Y] as the variant, how does the protein stability index read?
Answer: 1.72

Question: Which protein stability index does the source give for YVPEKVKIAEKKLEENPYDLDAWS [K8I] here?
Answer: 3.65

Question: Which protein stability index does the source give for YVPEKVKQAEKKLEENPYDLDAWS [K8Q] here?
Answer: 3.12

Question: Which protein stability index does the source give for YVPEKVKCAEKKLEENPYDLDAWS [K8C] here?
Answer: 2.34

Question: For YVPEKVKMAEKKLEENPYDLDAWS [K8M], which protein stability index is on record?
Answer: 2.97

Question: For YVPEKVKDAEKKLEENPYDLDAWS [K8D], which protein stability index is on record?
Answer: 2.48

Question: With YVPEKVKAAEKKLEENPYDLDAWS [K8A] as the variant, how does the protein stability index read?
Answer: 3.58

Question: With YVPEKVKVAEKKLEENPYDLDAWS [K8V] as the variant, how does the protein stability index read?
Answer: 2.21

Question: With YVPEKVKRAEKKLEENPYDLDAWS [K8R] as the variant, how does the protein stability index read?
Answer: 2.54

Question: For YVPEKVKTAEKKLEENPYDLDAWS [K8T], which protein stability index is on record?
Answer: 2.37

Question: For YVPEKVKSAEKKLEENPYDLDAWS [K8S], which protein stability index is on record?
Answer: 3.26

Question: With YVPEKVKFAEKKLEENPYDLDAWS [K8F] as the variant, how does the protein stability index read?
Answer: 3.78

Question: With YVPEKVKHAEKKLEENPYDLDAWS [K8H] as the variant, how does the protein stability index read?
Answer: 2.27

Question: For YVPEPVKKAEKKLEENPYDLDAWS [K5P], which protein stability index is on record?
Answer: 2.55

Question: Which protein stability index does the source give for YVPETVKKAEKKLEENPYDLDAWS [K5T] here?
Answer: 2.93

Question: For YVPEMVKKAEKKLEENPYDLDAWS [K5M], which protein stability index is on record?
Answer: 2.04

Question: For YVPEQVKKAEKKLEENPYDLDAWS [K5Q], which protein stability index is on record?
Answer: 2.73

Question: For YVPEDVKKAEKKLEENPYDLDAWS [K5D], which protein stability index is on record?
Answer: 1.9

Question: With YVPELVKKAEKKLEENPYDLDAWS [K5L] as the variant, how does the protein stability index read?
Answer: 2.07

Question: Which protein stability index does the source give for YVPEWVKKAEKKLEENPYDLDAWS [K5W] here?
Answer: 2.45

Question: With YVPESVKKAEKKLEENPYDLDAWS [K5S] as the variant, how does the protein stability index read?
Answer: 3.44

Question: For YVPEHVKKAEKKLEENPYDLDAWS [K5H], which protein stability index is on record?
Answer: 2.28

Question: For YVPEFVKKAEKKLEENPYDLDAWS [K5F], which protein stability index is on record?
Answer: 2.19

Question: For YVPEYVKKAEKKLEENPYDLDAWS [K5Y], which protein stability index is on record?
Answer: 3.04

Question: Which protein stability index does the source give for YVPEEVKKAEKKLEENPYDLDAWS [K5E] here?
Answer: 1.77

Question: With YVPECVKKAEKKLEENPYDLDAWS [K5C] as the variant, how does the protein stability index read?
Answer: 2.71

Question: For YVPEIVKKAEKKLEENPYDLDAWS [K5I], which protein stability index is on record?
Answer: 2.95

Question: For YVPEAVKKAEKKLEENPYDLDAWS [K5A], which protein stability index is on record?
Answer: 1.62

Question: For YVPERVKKAEKKLEENPYDLDAWS [K5R], which protein stability index is on record?
Answer: 2.72

Question: With YVPEVVKKAEKKLEENPYDLDAWS [K5V] as the variant, how does the protein stability index read?
Answer: 2.32

Question: Which protein stability index does the source give for YVPEGVKKAEKKLEENPYDLDAWS [K5G] here?
Answer: 2.25

Question: Which protein stability index does the source give for YVPENVKKAEKKLEENPYDLDAWS [K5N] here?
Answer: 3.5

Question: With EVPEKVKKAEKKLEENPYDLDAWS [Y1E] as the variant, how does the protein stability index read?
Answer: 5.59

Question: Which protein stability index does the source give for PVPEKVKKAEKKLEENPYDLDAWS [Y1P] here?
Answer: 5.24

Question: Which protein stability index does the source give for CVPEKVKKAEKKLEENPYDLDAWS [Y1C] here?
Answer: 4.97

Question: Which protein stability index does the source give for FVPEKVKKAEKKLEENPYDLDAWS [Y1F] here?
Answer: 2.56

Question: Which protein stability index does the source give for KVPEKVKKAEKKLEENPYDLDAWS [Y1K] here?
Answer: 5.08

Question: Which protein stability index does the source give for LVPEKVKKAEKKLEENPYDLDAWS [Y1L] here?
Answer: 4.43

Question: With GVPEKVKKAEKKLEENPYDLDAWS [Y1G] as the variant, how does the protein stability index read?
Answer: 5.31

Question: For HVPEKVKKAEKKLEENPYDLDAWS [Y1H], which protein stability index is on record?
Answer: 3.9

Question: For SVPEKVKKAEKKLEENPYDLDAWS [Y1S], which protein stability index is on record?
Answer: 5.23

Question: With NVPEKVKKAEKKLEENPYDLDAWS [Y1N] as the variant, how does the protein stability index read?
Answer: 5.14

Question: For VVPEKVKKAEKKLEENPYDLDAWS [Y1V], which protein stability index is on record?
Answer: 4.97

Question: With TVPEKVKKAEKKLEENPYDLDAWS [Y1T] as the variant, how does the protein stability index read?
Answer: 4.88

Question: Which protein stability index does the source give for IVPEKVKKAEKKLEENPYDLDAWS [Y1I] here?
Answer: 4.63

Question: For RVPEKVKKAEKKLEENPYDLDAWS [Y1R], which protein stability index is on record?
Answer: 5.17

Question: For DVPEKVKKAEKKLEENPYDLDAWS [Y1D], which protein stability index is on record?
Answer: 5.2

Question: With MVPEKVKKAEKKLEENPYDLDAWS [Y1M] as the variant, how does the protein stability index read?
Answer: 4.81

Question: With AVPEKVKKAEKKLEENPYDLDAWS [Y1A] as the variant, how does the protein stability index read?
Answer: 5.5

Question: For WVPEKVKKAEKKLEENPYDLDAWS [Y1W], which protein stability index is on record?
Answer: 4.24

Question: With QVPEKVKKAEKKLEENPYDLDAWS [Y1Q] as the variant, how does the protein stability index read?
Answer: 5.31
